In publication PMC3794980:

Tests used:
Assay in all cases: radioligand binding
[1] = target: HLA-DR DRB1*0301 (human (endogenous in EBV transformed cell lines))
[2] = target: HLA-DR DRB5*0101 (human (endogenous in EBV transformed cell lines))
[3] = target: HLA-DR DRB3*0101 (human (endogenous in EBV transformed cell lines))
[4] = target: HLA-DR DRB1*0401 (human (endogenous in EBV transformed cell lines))
[5] = target: HLA-DR DRB1*0901 (human (endogenous in EBV transformed cell lines))
[6] = target: HLA-DR DRB1*0701 (human (endogenous in EBV transformed cell lines))
[7] = target: HLA-DR DRB1*1101 (human (endogenous in EBV transformed cell lines))
[8] = target: HLA-DR DRB1*0405 (human (endogenous in EBV transformed cell lines))
[9] = target: HLA-DR DRB1*0101 (human (endogenous in EBV transformed cell lines))
[10] = target: HLA-DR DRB1*1501 (human (endogenous in EBV transformed cell lines))
[11] = target: HLA-DR DRB1*0802 (human (endogenous in EBV transformed cell lines))
[12] = target: HLA-DR DRB4*0101 (human (endogenous in EBV transformed cell lines))
[13] = target: HLA-DR DRB1*1302 (human (endogenous in EBV transformed cell lines))

DENV3 NS3 409-423 (peptide) showed an IC50 [1] of 470 nM, an IC50 [2] of 50.3 nM and an IC50 [3] of 168 nM.
DENV3 NS5 495-511 (peptide) gave an IC50 [4] of 14.9 nM, an IC50 [5] of 448 nM and an IC50 [2] of 723 nM. For the same substance, the IC50 [6] was 190 nM.
Substance DENV3 NS5 582-598 (peptide) has an IC50 [7] of 106 nM.
DENV3 NS5 489-505 (peptide) was tested, and the IC50 [1] was 118 nM, the IC50 [8] was 236 nM and the IC50 [9] was 231 nM. It also gave an IC50 [2] of 936 nM and an IC50 [3] of 387 nM.
DENV3 Envelope 396-410 (peptide) was tested, and the IC50 [1] was 424 nM, the IC50 [5] was 39.9 nM and the IC50 [9] was 4.89 nM. It also gave an IC50 [2] of 26.8 nM, an IC50 [10] of 258 nM and an IC50 [11] of 106 nM. For the same substance, the IC50 [7] was 38.9 nM, the IC50 [3] was 424 nM and the IC50 [6] was 296 nM.
DENV3 NS5 570-586 (peptide) showed an IC50 [2] of 27.8 nM.
Substance DENV3 NS3 181-195 (peptide) has an IC50 [10] of 891 nM and an IC50 [12] of 67.8 nM.
In the case of DENV3 NS1 121-135 (peptide), the IC50 [9] is reported as 355 nM, the IC50 [11] is reported as 45.5 nM and the IC50 [12] is reported as 382 nM.
DENV3 NS5 558-574 (peptide) showed an IC50 [1] of 586 nM, an IC50 [8] of 667 nM and an IC50 [2] of 391 nM. The IC50 [10] was 401 nM, the IC50 [7] was 173 nM and the IC50 [6] was 134 nM.
With DENV3 NS5 45-61 (peptide) the IC50 [2] was 449 nM, the IC50 [7] was 82.5 nM and the IC50 [6] was 453 nM. For the same substance, the IC50 [12] was 8.53 nM.
In the case of DENV3 Envelope 281-295 (peptide), the IC50 [1] is reported as 16.7 nM, the IC50 [10] is reported as 652 nM and the IC50 [3] is reported as 31.1 nM.
For DENV3 Envelope 261-275 (peptide), the IC50 [6] was 82.1 nM.
DENV3 NS1 269-283 (peptide) showed an IC50 [3] of 71.3 nM.
Substance DENV3 NS1 133-147 (peptide) has an IC50 [3] of 62.3 nM.
For DENV3 Envelope 251-265 (peptide), the IC50 [9] was 588 nM and the IC50 [2] was 722 nM.
DENV3 Envelope 51-65 (peptide) was tested, and the IC50 [9] was 80.6 nM, the IC50 [10] was 982 nM and the IC50 [11] was 130 nM. It also gave an IC50 [7] of 40.4 nM and an IC50 [12] of 154 nM.
For DENV3 NS1 93-107 (peptide), the IC50 [6] was 483 nM.
With DENV3 Envelope 236-250 (peptide) the IC50 [9] was 340 nM, the IC50 [2] was 29.6 nM and the IC50 [11] was 419 nM. For the same substance, the IC50 [6] was 560 nM.
For DENV3 NS3 209-223 (peptide), the IC50 [12] was 5.06 nM.
DENV3 NS3 73-87 (peptide) showed an IC50 [2] of 70.7 nM.
Work on DENV3 NS1 29-43 (peptide) yielded an IC50 [2] of 22.8 nM and an IC50 [3] of 10.6 nM.
DENV3 NS5 330-346 (peptide) gave an IC50 [11] of 4.01 nM.
For DENV3 NS1 33-47 (peptide), the IC50 [3] was 22.4 nM and the IC50 [12] was 916 nM.
Work on DENV3 Envelope 316-330 (peptide) yielded an IC50 [10] of 361 nM and an IC50 [7] of 153 nM.
For DENV3 NS5 501-517 (peptide), the IC50 [4] was 73.6 nM, the IC50 [5] was 351 nM and the IC50 [9] was 6.98 nM. It also gave an IC50 [11] of 836 nM and an IC50 [6] of 17.5 nM.
DENV3 NS1 229-243 (peptide) showed an IC50 [4] of 178 nM, an IC50 [1] of 170 nM and an IC50 [3] of 733 nM.
Work on DENV3 NS5 447-463 (peptide) yielded an IC50 [2] of 25 nM.
Substance DENV3 NS1 241-255 (peptide) has an IC50 [9] of 50.7 nM.
For DENV3 NS3 345-359 (peptide), the IC50 [3] was 31.8 nM.
DENV3 NS3 389-403 (peptide) showed an IC50 [7] of 676 nM.
With DENV3 NS3 101-115 (peptide) the IC50 [8] was 725 nM, the IC50 [9] was 201 nM and the IC50 [10] was 447 nM.
DENV3 Envelope 366-380 (peptide) showed an IC50 [11] of 762 nM and an IC50 [6] of 552 nM.
DENV3 Envelope 231-245 (peptide) was tested, and the IC50 [5] was 48.4 nM, the IC50 [9] was 5.11 nM and the IC50 [2] was 24.6 nM. It also gave an IC50 [10] of 5.25 nM.
Substance DENV3 NS5 29-45 (peptide) has an IC50 [7] of 289 nM.
With DENV3 NS3 61-75 (peptide) the IC50 [2] was 143 nM and the IC50 [13] was 84.5 nM.
DENV3 Envelope 306-320 (peptide) showed an IC50 [4] of 530 nM.
Substance DENV3 NS5 642-658 (peptide) has an IC50 [1] of 775 nM, an IC50 [9] of 166 nM and an IC50 [2] of 5.07 nM. The IC50 [10] was 59.4 nM and the IC50 [7] was 665 nM.
Work on DENV3 NS3 241-255 (peptide) yielded an IC50 [2] of 16.7 nM and an IC50 [6] of 525 nM.
With DENV3 NS1 297-311 (peptide) the IC50 [4] was 484 nM, the IC50 [9] was 228 nM and the IC50 [10] was 736 nM. It also gave an IC50 [11] of 561 nM and an IC50 [6] of 262 nM.
For DENV3 NS1 261-275 (peptide), the IC50 [12] was 666 nM.
DENV3 NS5 838-854 (peptide) was tested, and the IC50 [5] was 680 nM and the IC50 [3] was 79.2 nM.
Work on DENV3 NS3 393-407 (peptide) yielded an IC50 [6] of 456 nM.
DENV3 NS3 185-199 (peptide) was tested, and the IC50 [4] was 171 nM, the IC50 [1] was 870 nM and the IC50 [8] was 972 nM. It also gave an IC50 [11] of 21 nM, an IC50 [7] of 71.8 nM and an IC50 [12] of 7.64 nM.
Work on DENV3 NS5 306-322 (peptide) yielded an IC50 [11] of 70.2 nM.
Work on DENV3 NS1 69-83 (peptide) yielded an IC50 [3] of 50.2 nM.
In the case of DENV3 NS5 780-795 (peptide), the IC50 [12] is reported as 168 nM.
